According to article PMC4057743, “Arabidopsis ABA Receptor RCAR1/PYL9 Interacts with an R2R3-Type MYB Transcription Factor, AtMYB44” (International Journal of Molecular Sciences, 2014):

Target: T1, His-ABI1 (Arabidopsis, UniProt P49597 1-434)
T1 construct: ABI1, type 2C protein phosphatase (PP2C), Arabidopsis; ORF subcloned into pET28a via BamH I and Hind III sites; source: Escherichia coli, purified
T1 sequence (looked up): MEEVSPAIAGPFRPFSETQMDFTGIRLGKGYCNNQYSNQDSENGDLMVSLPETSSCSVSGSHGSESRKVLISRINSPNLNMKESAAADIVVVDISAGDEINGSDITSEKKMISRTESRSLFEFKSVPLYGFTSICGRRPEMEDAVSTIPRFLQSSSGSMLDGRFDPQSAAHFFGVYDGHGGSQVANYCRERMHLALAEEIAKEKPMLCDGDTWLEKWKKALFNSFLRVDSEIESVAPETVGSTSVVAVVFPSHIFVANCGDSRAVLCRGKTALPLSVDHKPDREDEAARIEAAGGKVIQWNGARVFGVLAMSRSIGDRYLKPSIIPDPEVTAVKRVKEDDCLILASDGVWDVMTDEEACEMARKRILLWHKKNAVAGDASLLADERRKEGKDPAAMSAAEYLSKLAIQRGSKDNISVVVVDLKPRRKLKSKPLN
Assay: pull-down; competitive: 5 μg His-RCAR1/PYL9 with 0, 5 or 25 μg His-ABI1 or 25 μg His protein on immobilized GST-AtMYB44 (5 μg); 50 mM Tris-HCl pH 7.5, 100 mM NaCl, 1 mM EDTA, 0.05% β-mercaptoethanol, 0.2% Triton X-100, 10 mM MgCl2; 4 °C, 2 h; 10 μM ABA when indicated; anti-His blot
Conditions: both partners purified

B1: His-RCAR1/PYL9 (receptor, Arabidopsis, UniProt Q84MC7 1-187, looked up)
chain: MMDGVEGGTAMYGGLETVQYVRTHHQHLCRENQCTSALVKHIKAPLHLVWSLVRRFDQPQKYKPFVSRCTVIGDPEIGSLREVNVKSGLPATTSTERLELLDDEEHILGIKIIGGDHRLKNYSSILTVHPEIIEGRAGTMVIESFVVDVPQGNTKDETCYFVEALIRCNLKSLADVSERLASQDITQ
notes: ABA receptor RCAR1/PYL9, Arabidopsis; ORF subcloned into pET28a via EcoR I and Xho I sites; source: Escherichia coli, purified
binding result: binds
